Assays:
CLDN6-LLC1 = CLDN6-LLC1 syngenic model, combination with anti-mouse PD-L1 antibody; assay type: in vivo, hCD137 KI/hCD3Tg mice; settings: 17 days after transplantation; CS4135 0.2 mg/kg iv day 6, anti-mouse PD-L1 antibody 10 mg/kg ip days 6, 8, 10, 12, 14, 17
Description: In this test, lung cancer cell line LLC1 forced to express claudin 6 (CLDN6) (CLDN6-LLC1) and hCD137 KI/hCD3Tg mice (described in the aforementioned Example 7) were used. The CLDN6-LLC1 cell line was transplanted subcutaneously to the right flank of the mice, and the mice were divided into groups 6 days after transplantation. Individuals whose tumor volume reached 104 to 140 mm^3 were divided into groups. The vehicle and the CS4135 antibody were administered into the mouse tail vein 6 days after transplantation. PBS containing 0.05% Tween-20 was used as the vehicle. The vehicle and anti-mouse PD-L1 antibody (BioX cell) were administered intraperitoneally to the mice 6, 8, 10, 12, 14, and 17 days after transplantation.
Tumor volume was measured 6, 10, 12, 14, and 17 days after transplantation, and the average tumor volume was indicated for each group. The tumor volume was calculated by the following equation: […]
(§1) Tumor Growth Inhibition (TGI) was calculated by the following equation: […]

UWB1.289 = experiment: LDH release cytotoxicity on olaparib-treated UWB1.289; assay type: cell-based; settings: UWB1.289, olaparib 3 μM three days vs DMSO, human PBMC
Description: The effect of the enhanced induction of CLDN6 expression in BRCA1-deficient ovarian cancer cell line UWB1.289, caused by the PARP inhibitor (olaparib), on the cytotoxic activity of anti-CLDN6/Dual-Fab tri-specific antibody CS4135 was assessed.
BRCA1-deficient ovarian cancer cell line UWB1.289 (ATCC) or BRAC1 wildtype ovarian cancer cell line OV-90 (ATCC) which express human CLDN6 were used as target cells.
Each target cell (3×10^5 cells) were seeded at 5 mL into a 25 cm^2-flask. Two flasks were prepared for each target cell. After culturing overnight, olaparib was added at a final concentration of 3 μM to one of the two flasks. DMSO was added to the other flask. After incubating the flasks for three days, the target cells were recovered, and the cytotoxic activity of the CS4135 antibody was evaluated by […] (LDH) release assay using human PBMC as the effector cell.

MC38/CLDN6 = experiment: xCELLigence mechanism assay with KLH/CD137 bispecific antibody; assay type: cell-based, mouse; settings: 1 nM
Description: The mechanism of T-cell dependent growth inhibition mediated by the anti-CLDN6/Dual-Fab tri-specific antibodies was assessed by cell proliferation assay using an xCELLigence RTCA MP instrument (ACEA Biosciences).
Mouse colon cancer cell line MC38/CLDN6 expressing human CLDN6 was used as target cells. Spleens were collected aseptically from hCD3 transgenic mice and hCD3/hCD137 knock-in mice. The spleen was ground in RPMI-1640 medium containing 10% FBS, passed through a 70-μm cell strainer, and then centrifuged (at 1200 rpm for 10 minutes at room temperature) to isolate spleen cells. The isolated spleen cells were hemolyzed, then T cells alone were isolated using CD3 MicroBeads (Miltenyi Biotec), and used as effector cells.
The background was measured by adding the culture medium to an E-Plate 96 plate (Roche Diagnostics) at 50 μL/well, and then 5×10^3 target cells were plated at 50 μL/well. After culturing overnight, 1 nM (final concentration) of CS4135 together with the KLH/CD137 bispecific antibody at a concentration selected from 100 nM or 500 nM (final concentration) were added at 25 μL/well, respectively. […] Cell growth was monitored every 10 min using xCELLigence over 48 hours during the incubation of the plates. The rate of cell growth inhibition (CGI: %) was determined from the cell index value according to the following formula: […]

recombinant human CD3eg = recombinant human CD3eg (Homo sapiens, UniProt P07766+P09693); experiment: Biacore 8K SPR affinity to human CD3eg; assay type: binding; settings: 25 degree C, pH 7.4
Sequence of recombinant human CD3eg (P07766+P09693 fused): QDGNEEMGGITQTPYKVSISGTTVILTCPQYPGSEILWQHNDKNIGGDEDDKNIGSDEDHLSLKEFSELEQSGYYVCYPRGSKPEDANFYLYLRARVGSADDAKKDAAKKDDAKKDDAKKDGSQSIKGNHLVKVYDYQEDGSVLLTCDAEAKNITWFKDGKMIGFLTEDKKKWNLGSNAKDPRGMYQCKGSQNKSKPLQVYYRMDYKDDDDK
Description: The binding affinity of the anti-CLDN6/Dual-Fab tri-specific antibody against recombinant human and cyno CD3eg (gamma and epsilon subunits of CD3) at pH 7.4 was determined at 25 degree C. using Biacore 8K instrument (GE Healthcare). The binding affinity of the anti-CLDN6/Dual-Fab tri-specific antibody against recombinant human and cyno CD137 at pH 7.4 was determined at 37 degree C. using Biacore 8K instrument (GE Healthcare). Anti-human Fc (GE Healthcare) antibody was immobilized onto all flow cells of a CM4 sensor chip using amine coupling kit (GE Healthcare). Tested antibody and analytes were prepared in ACES pH 7.4 containing 20 mM ACES, 150 mM NaCl, 0.05% Tween 20, 0.005% NaN3. Anti-CLDN6/Dual-Fab tri-specific antibody was captured onto the sensor surface by anti-human Fc. Antibody capture levels were aimed at 300 resonance unit (RU). Recombinant CD3eg and CD137 were injected at both 500 and 2000 nM, followed by dissociation. Sensor surface was regenerated each cycle with 3M MgCl2. […] Binding affinities were determined by processing and fitting the data to 1:1 binding model using Biacore Insight Evaluation software (GE Healthcare).

SNG-M = SNG-M xenograft in huNOG mice, combination with carboplatin; assay type: in vivo; settings: 30 days after transplantation; CS4135 0.5 mg/kg iv day 13, carboplatin 40 mg/kg ip days 13, 16, 20
Description: In this test, NOG (huNOG) mice (described in the aforementioned Example 13) transplanted with human uterus cancer cell line SNG-M and human CD34-positive cells were used. The SNG-M cell line was transplanted subcutaneously to the right flank of the mice, and the mice were divided into groups 13 days after transplantation. Individuals whose tumor volume reached 130 to 244 mm^3 were divided into groups. Vehicle 1 and CS4135 were administered into the mouse tail vein 13 days after transplantation. PBS containing 0.05% Tween-20 was used as Vehicle 1. Vehicle 2 and carboplatin (Bristol Myers Squibb Company) were administered intraperitoneally to the mice 13, 16, and 20 days after transplantation. Physiological saline was used as Vehicle 2.
Tumor volume was measured 13, 16, 20, 23, 26, and 30 days after transplantation, and the average tumor volume was indicated for each group.
The tumor volume was calculated by the following equation: […]
as §1

B1: PPU4135: anti-CLDN6/Dual-Fab tri-specific antibody, chains SEQ ID NOs 42, 51, 56, 69; CS4135 same antibody (protein)
chain 1: QVQLVESGGGVVQPGGSLRLSCAASGFTFSSYTMSWVRQAPGQGLEWMGTISSGGGRTYYPDSVKGRFTISRDNSKNTLYLQMNSLRDEDTAVYYCARGDYRYDGFAYWGEGTLVTVSSASTKGPSVFPLAPSSKSTSGGTAALGCLVEDYFPEPVTVSWNSGALTSGVHTFPAVLESSGLYSLSSVVTVPSSSLGTQTYICNVNHKPSNTKVDKRVEPKSCDKTHTCPPCPAPEAAGGPSVFLFPPKPKDTLMISRTPEVTCVVVDVSHEDPEVKFNWYVDGVEVHNAKTKPREEQYASTYRVVSVLTVLHQDWLNGKEYKCKVSNKALPAPIEKTISKAKGQPREPQVYTLPPSREEMTKNQVSLTCLVKGFYPSDIAVEWESNGQPENNYKTTPPVLDSDGSFFLYSKLTVDKSRWQQGNVFSCSVMHEALHNHYTQESLSLSP
chain 2: DIQMTQSPSSLSASVGDRVTITCRASYNIDSYLAWYQQKPGKAPELLIYYSTLLVDGVPDRFSGSRSGTDFTLTISSLQPEDFATYYCQHYYSIPYTFGQGTKVEIERTVAAPSVFIFPPSDEQLKSGTAKVVCLLNNFYPREAKVQWKVDNALQSGNSKESVTEQDSKDSTYSLSSTLTLSKADYEKHKVYACEVTHQGLSSPVTKSFNRGEC
chain 3: QVQLVESGGGLVQPGRSLRLSCAASGFKFSNVWFHWVRQAPGKGLEWVAQIKDYYNAYAAYYAPSVKGRFTISRDDSKNSIYLQMNSLKTEDTAVYYCHYVHYASASTLLPAEGVDAWGQGTTVTVSSASTKGPSVFPLAPSSKSTSGGTAALGCLVKDYFPEPVTVSWNSGALTSGVHTFPAVLKSSGLYSLSSVVTVPSSSLGTQTYICNVNHKPSNTKVDKRVEPKSCDKTHTCPPCPAPEAAGGPSVFLFPPKPKDTLMISRTPEVTCVVVDVSHEDPEVKFNWYVDGVEVHNAKTKPREEQYASTYRVVSVLTVLHQDWLNGKEYKCKVSNKALPAPIEKTISKAKGQPREPQVYTLPPSRKEMTKNQVSLTCLVKGFYPSDIAVEWESNGQPENNYKTTPPVLDSDGSFFLYSKLTVDKSRWQQGNVFSCSVMHEALHNHYTQKSLSLSP
chain 4: DIVMTQSPLSLPVTPGEPASISCQPSQEVVHMNRNTYLHWYQQKPGQAPRLLIYKVSNRFPGVPDRFSGSGSGTDFTLKISRVEAEDVGVYYCAQGTSHPFTFGQGTKLEIKRTVAAPSVFIFPPSDEQLKSGTAEVVCLLNNFYPREAKVQWKVDNALQSGNSEESVTEQDSKDSTYSLSSTLTLSKADYEKHKVYACEVTHQGLSSPVTKSFNRGEC
**Q.** Which “Tumor growth inhibition: TGI” value (CLDN6-LLC1) does the source give for B1 here?
**A.** The value was 71%.

**Q.** What about the “cytotoxic activity after addition of olaparib” value (UWB1.289) of the same molecule?
**A.** Its value is “enhancement of cytotoxicity”.

**Q.** And the “cell growth inhibition rate” value (MC38/CLDN6; T cells from hCD3/hCD137 knock-in mice vs hCD3 transgenic mice, no KLH/CD137 bispecific antibody)?
**A.** The value was “significantly higher”.

**Q.** And the “cell growth inhibition rate” value (MC38/CLDN6; hCD3/hCD137 knock-in T cells, 500 nM KLH/CD137 bispecific antibody added)?
**A.** The value was “decreased to the same level as when using hCD3 transgenic mice-derived T cells”.

**Q.** What about the ka (recombinant human CD3eg) of the same molecule?
**A.** Its ka is 78000 M⁻¹ s⁻¹.

**Q.** What about the kd (recombinant human CD3eg) of the same molecule?
**A.** Its kd is 0.0266 s⁻¹.

**Q.** And the “Tumor growth inhibition: TGI” value (SNG-M)?
**A.** Its value is 35%.

Reference: patent US20240425589A1, “CYTOTOXICITY-INDUCING THERAPEUTIC AGENT FOR USE IN TREATMENT OF CANCER” (CHUGAI SEIYAKU KABUSHIKI KAISHA, priority 2021, published 2024)
